One assay deals with T1, mouse IL1RAP (Mus musculus, UniProt Q61730).
T1 construct: Met1-Val570; host or cells: HEK-293T
Nature of the assay: Flow cytometry binding to 293 cells expressing mouse IL1RAP. Type of assay: cell-based. The conditions noted are these: 1 ug/ml. How it is done:
(§1) 293T cell line was purchased from American Type Culture Collection (ATCC). 293T cells expressing human, Macaca fascicularis, rat, and mouse IL1RAP were maintained in DMEM medium (Invitrogen) with 10% fetal bovine serum (FBS) (Sigma) in the presence of 2 ug/ml puromycin (Invitrogen).
(§2) Staining for flow cytometry was performed in 1× cold PBS with 0.5% BSA. Primary antibodies (1 ug/ml) were incubated with live cells on ice for 30 minutes, after a brief wash, cells were incubated with Alexa Fluro® 488-conjugated anti-human IgG secondary antibody @1:1000 (709-546-149, Jackson ImmunoResearch). Acquisition of the data was performed on a MACSQuant® Flow Cytometers (Miltenyi Biotec) and analyzed with FlowJo software.

A further assay relates to EOL-1. In words: Flow cytometry binding to endogenous cell line EOL-1. Format: cell-based, human. Details: key to binding to EOL-1 by flow cytometry: (−): No binding; (+): Weak binding; (++): Moderate binding; (+++): Strong binding. The conditions noted are these: for binding to EOL-1 by flow cytometry: primary antibody 1 ug/ml. How it is done: as §2
(§3) Over 1,000 hits were identified that bind strongly to CHO-human IL1RAP, but not parental CHO cells. 68 clones were selected for molecular cloning. Based on unique CDR3 sequences from the heavy chain variable domain, 35 antibodies from 13 families were confirmed by binding in IL1RAP positive cell lines EOL1 and Karpas 299 (see Table 8) by flow cytometry (MACSQuant® www.miltenybiotec.com).

A further assay relates to Karpas 299. Nature of the assay: Flow cytometry binding to endogenous cell line Karpas 299. Format: cell-based, human. Details: key to binding to Karpas 299 by flow cytometry: (−): No binding; (+): Weak binding; (++): Moderate binding; (+++): Strong binding. The conditions noted are these: for binding to Karpas 299 by flow cytometry: primary antibody 1 ug/ml. How it is done:
as §2, §3

The target of another assay is T2, rat IL1RAP (Rattus norvegicus, UniProt Q63621).
T2 construct: Met1-Val570; host or cells: HEK-293T
T2 sequence (Q63621 21-570): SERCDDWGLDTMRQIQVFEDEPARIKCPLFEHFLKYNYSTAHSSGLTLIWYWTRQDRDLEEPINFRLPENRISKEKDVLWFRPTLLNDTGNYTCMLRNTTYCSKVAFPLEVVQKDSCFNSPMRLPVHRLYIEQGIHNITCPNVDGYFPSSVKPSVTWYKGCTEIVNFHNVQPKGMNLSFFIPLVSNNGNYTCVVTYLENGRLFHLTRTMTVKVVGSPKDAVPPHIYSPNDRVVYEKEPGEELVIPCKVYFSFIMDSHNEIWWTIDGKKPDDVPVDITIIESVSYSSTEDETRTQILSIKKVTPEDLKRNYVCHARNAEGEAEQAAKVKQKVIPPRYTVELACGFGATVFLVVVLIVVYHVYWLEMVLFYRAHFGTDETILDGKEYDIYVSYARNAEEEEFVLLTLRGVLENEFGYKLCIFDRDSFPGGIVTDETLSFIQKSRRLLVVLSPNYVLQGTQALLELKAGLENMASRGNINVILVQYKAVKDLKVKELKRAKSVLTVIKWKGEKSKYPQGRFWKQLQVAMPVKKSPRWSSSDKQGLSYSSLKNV
In words: Flow cytometry binding to 293 cells expressing rat IL1RAP. Format: cell-based. The conditions noted are these: 1 ug/ml. How it is done: as §1, §2

The next assay addresses T3, recombinant human IL1RAP (Homo sapiens, UniProt Q9NPH3).
T3 construct: MBP-IL1RAP(S21-T367)-; 8xHis (C); made in house; host or cells: CHO (ExpiCHO transient expression)
Nature of the assay: Binding competition binning on Octet. The conditions noted are these: Protein A biosensors. How it is done:
Binding Competition binning: Binding competition among different antibodies was determined using a real-time, interferometry assay on an Octet Red™ instrument with Protein A-conjugated biosensors. To assess whether two antibodies competed for binding to a recombinant IL1RAP protein, the assay was performed as follows. Protein A biosensors were first submerged into wells containing 10 ug/mL of individual monoclonal antibodies for 5 minutes. Following the capture step, the biosensors were dipped briefly (15 seconds) into buffer and then any unoccupied sites on the biosensor were saturated by submerging them for 5 minutes into wells containing 100 ug/mL of an irrelevant monoclonal antibody. The Octet™ biosensors were then dipped briefly (15 seconds) in buffer before immersion for 1 minute into wells containing recombinant IL1RAP. The biosensors were dipped briefly (15 seconds) in buffer before immersion for 1 minute into wells containing a second recombinant antibody.
For the control case where the second antibody was the same as the first, there was no increase in signal, because there was no additional binding to the recombinant target.
For the control case where buffer was used instead of the first antibody, no recombinant target bound the non-quenching antibody on the biosensor and no second antibody bound the biosensor.
Selected antibodies were evaluated in pairs for their ability to simultaneously bind recombinant human IL1RAP. The analysis was performed by Octet™ loaded with Protein A Biosensors. A total of five different bins were determined as follows.

In a further assay the test system is IL-1α signaling. In words: IL-1 signaling reporter cell assay, IL-1α. Type of assay: cell-based. The conditions noted are these: serial dilution of antibody. The procedure: (§4) HEK-Blue IL-1β cells (Invivogen, CA) were harvested and plated in technical duplicates at a density of 50,000 cells per well in a 96-well plate. IL1RAP antibodies, or a corresponding human IgG1 control antibody was added to the wells in a concentration range of […]. After incubating cells with antibodies for 30 minutes, IL-1β was added to a final concentration of 0.5 ng/ml, and the plate was incubated overnight. To examine whether any of the antibodies were able to induce IL-1R activation in the absence of IL-1β, samples were incubated with 10 μg/mL antibody without addition of the ligand. The following day, substrate was added to the supernatants, and samples were analyzed for absorbance at 620 nm.
In addition, serial dilution of IL1RAP antibodies was performed to determine EC50 against IL-1β and IL-1α (FIGS. 6B and 6C). Many of these antibodies, including 37E10_15B5 and 44E5_15C5 can block IL-1β and IL-1α signaling with subnanomolar EC50.

In a further assay the test system is IL-1β signaling. In words: IL-1 signaling reporter cell assay (HEK-Blue IL-1β cells), IL-1β. Type of assay: cell-based. The conditions noted are these: for inhibition of IL1R1 / IL-1 signaling: HEK-Blue IL-1β cells, antibody 1-10 pg/ml, IL-1β 0.5 ng/ml. The procedure: as §4
A further assay relates to DMS79. In words: Flow cytometry binding to endogenous cell line DMS79. Type of assay: cell-based. Details: key to binding to DMS79 by flow cytometry: (−): No binding; (+): Weak binding; (++): Moderate binding; (+++): Strong binding. How it is done: as §2
In another assay the test system is IL-33 signaling. Nature of the assay: IL-33 signaling reporter cell assay (HEK-Blue IL-33 cells). Type of assay: cell-based. The conditions noted are these: antibody 1-10 μg/ml, IL-33 0.5 ng/ml. How it is done: FIGS. 7A and 7B show blockage of IL-33 signaling by anti-IL1RAP antibodies. HEK-Blue IL-33 cells (Invivogen, CA) were harvested and plated in technical duplicates at a density of 50,000 cells per well in a 96-well plate. Antibodies, or a corresponding human IgG1 control antibody, was added to the wells in a serial dilution starting at 10 μg/ml (FIG. 7A), or a concentration of 1 and 10 μg/ml (FIG. 7B). After incubating cells with antibodies for 30 minutes, IL-33 was added to a final concentration of 0.5 ng/ml, and the plate was incubated overnight. 24 hours later, substrate was added to the supernatants, and samples were analyzed for absorbance at 620 nm. CBIgG1 (anti-hen egg lysozyme antibody, CrownBio™) was included as a negative control.
as §4, with “IL-33” for “IL-1β”, “plate.” for “plate. IL1RAP”, “ST2” for “IL-1R”, “IL-33,” for “IL-1β,”

Another assay relates to H69. Nature of the assay: Flow cytometry binding to endogenous cell line H69. Format: cell-based. Also noted: key: (−): No binding; (+): Weak binding; (++): Moderate binding; (+++): Strong binding. The conditions noted are these: primary antibody 1 ug/ml. The procedure:
as §2

The test system of a further assay is MOLT3. In words: Flow cytometry binding to endogenous cell line MOLT3. Format: cell-based. Also noted: key: (−): No binding; (+): Weak binding; (++): Moderate binding; (+++): Strong binding. The conditions noted are these: primary antibody 1 ug/ml. How it is done:
as §2

Substitutions are numbered along the chain they refer to.

T1 sequence (Q61730 21-570): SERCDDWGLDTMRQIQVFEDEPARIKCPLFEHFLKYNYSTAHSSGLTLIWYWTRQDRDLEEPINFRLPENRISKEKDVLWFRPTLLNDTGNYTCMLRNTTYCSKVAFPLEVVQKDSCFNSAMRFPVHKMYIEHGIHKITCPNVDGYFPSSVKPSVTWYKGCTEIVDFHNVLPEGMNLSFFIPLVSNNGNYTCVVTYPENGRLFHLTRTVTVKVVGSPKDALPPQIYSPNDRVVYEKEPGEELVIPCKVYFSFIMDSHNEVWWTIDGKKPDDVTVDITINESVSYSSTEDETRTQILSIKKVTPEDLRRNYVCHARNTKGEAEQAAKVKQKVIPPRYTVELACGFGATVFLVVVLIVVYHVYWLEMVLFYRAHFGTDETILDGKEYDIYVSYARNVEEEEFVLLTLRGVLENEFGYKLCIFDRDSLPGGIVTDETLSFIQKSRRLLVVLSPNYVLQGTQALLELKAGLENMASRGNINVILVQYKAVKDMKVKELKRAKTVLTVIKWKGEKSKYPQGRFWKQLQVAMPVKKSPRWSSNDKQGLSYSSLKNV

B1: 24G3_17C5: human anti-IL1RAP antibody, VH SEQ ID NO: 90, VL SEQ ID NO: 93 (antibody, V domains shown)
VH: EVQLLESGGGLVQRGGSLRLSCAASGFTFSSYAMSWVRQAPGKGLEWVSSISGSGDSTNYADSVKGRFTISRDNSKNTLHLQMNSLRAEDTAVYYCVRDYYYGMDVWGHGTTVTVSS
VL: EIVLTQSPATLSLSPGERATLSCRASQSVNSYLAWYQQKPGQAPRLLIYDASNRATGIPARFSGSGSGTDFTLTISSLEPEDFAVYYCQQRSYWPITFGQGTRLEIK
As for B1, the “binding to 293 cells expressing mouse IL1RAP” value with mouse IL1RAP is “bind weakly”. Further, in the assay with EOL-1, the “binding to EOL-1 by flow cytometry” value is reported as “(++)”. The “binding to Karpas 299 by flow cytometry” value in the assay with Karpas 299 is reported as “(++)”. Moreover, in the assay with rat IL1RAP, the “binding to 293 cells expressing rat IL1RAP” value is “bind”. In the assay with recombinant human IL1RAP, the “competition for binding, bin (1)” value is recorded as “competed with each other”.

B2: 44E5_15C5: human anti-IL1RAP antibody, VH SEQ ID NO: 71, VL SEQ ID NO: 73 (antibody, V domains shown)
VH: QVQLVESGGGVVQPGRSLRLSCAASGFTFRSHGMHWVRQAPGKGLEWVAVIWYDGSSDYYADSVKGRFTISRDNSKNTLFLQMNSLSAEDTAVYYCARENVYGSGWFFDYWGQGTLVTVSS
VL: EIVMTQSPATLSVSPGERASLSCRASQSVGSNLAWYQQKPGQAPRLLIFGASTRATGIPARFSGSRSGTEFTLTISSLQSEDFALYYCQQYNNWPPWTFGQGTKLEIK
On to B2, for which the “EC50 against IL-1α” value with IL-1α signaling is given as “subnanomolar”. Besides, the “inhibition of IL1R1 / IL-1 signaling” value in the assay on IL-1β signaling is given as “potent inhibition”. Besides, in the assay with IL-1β signaling (serial dilution of antibody, reporter assay), the “EC50 against IL-1β” value is “subnanomolar”. For the same molecule, the “binding to IL1RAP positive cell line EOL1” value with EOL-1 (flow cytometry, FIG. 2) is “specific binding”. Moreover, the “binding to EOL-1 by flow cytometry” value with EOL-1 is on record as “(+++)”. Further, the “binding to IL1RAP positive cell line Karpas 299” value with Karpas 299 (flow cytometry, FIG. 2) is “specific binding”. Moreover, in the assay with recombinant human IL1RAP, the “competition for binding, bin (2)” value is reported as “competed with each other”. Besides, in the assay on DMS79 (flow cytometry, FIG. 2), the “binding to IL1RAP negative cell line DMS79” value was “lack of binding”. In the assay with IL-33 signaling, the “inhibition of IL-33 signaling” value was “partially inhibit”. In addition, the “binding to H69 by flow cytometry” value with H69 is “(−)”.

B3: 39G1_21C4: human anti-IL1RAP antibody, VH SEQ ID NO: 56, VL SEQ ID NO: 60 (antibody, V domains shown)
VH: QVQLQESGPGLVKPSETLSLTCAVSGYSASGVYYWGWIRQPPGKGLEWIGNIYHSGSTYYNPSLERRVSISLDTSKNHFSLRLNFVTAADTAVYYCARDRFDAFDIWGQGTMVTVSS
VL: EIVMTQSPATLSVSPGERATLSCRASQSINNILAWYQQKPGQAPRLLIYGASTRATGIPARFSGSGSGTEFTLTISSLQSEDFAVYYCQQYNNWPLTFGGGTKVEIK
As for B3, the “binding to 293 cells expressing mouse IL1RAP” value with mouse IL1RAP is listed as “bind weakly”. Further, the “inhibition of IL1R1 / IL-1 signaling” value with IL-1β signaling is reported as “do not inhibit”. Also, in the assay on EOL-1, the “binding to EOL-1 by flow cytometry” value is “(+++)”. Moreover, in the assay with recombinant human IL1RAP, the “competition for binding, bin (1)” value is given as “competed with each other”. Also, in the assay with MOLT3, the “binding to MOLT3 by flow cytometry” value is on record as “(+)”. Besides, the “inhibition of IL-33 signaling” value in the assay with IL-33 signaling is given as “do not inhibit”.

B4: 34C11_21B2: human anti-IL1RAP antibody, VH SEQ ID NO: 40, VL SEQ ID NO: 44 (antibody, V domains shown)
VH: EVQVVESGGGLVQPGGSLRLSCAASGFTFRSYWMSWVRQAPGKGLEWVANIKQDGSERHYVDSVKGRFTISRDNAKTSLYLQMSSLRAEDTAVYYCAREGYFGSGYFDYWGQGTLVTVSS
VL: DIQMTQSPSTLSASVGDRVIITCRASQSISRGLAWYQQKPGKAPKLLIYKASNLESGVPSRFSGSGSGTEFTLTISSLQPDDFAAYYCQQYSYYSHTFGQGTKLEIK
For the molecule B4, in the assay with EOL-1, the “binding to EOL-1 by flow cytometry” value is reported as “(+++)”. In addition, the “binding to Karpas 299 by flow cytometry” value with Karpas 299 is “(+++)”. Moreover, the “binding to 293 cells expressing rat IL1RAP” value with rat IL1RAP was “bind”. Besides, the “competition for binding, bin (1)” value with recombinant human IL1RAP is on record as “competed with each other”. In addition, the “binding to MOLT3 by flow cytometry” value in the assay on MOLT3 is reported as “(+)”.

B5: 38G11_28A2: human anti-IL1RAP antibody, VH SEQ ID NO: 151, VL SEQ ID NO: 154 (antibody, V domains shown)
VH: B4 VH with V4L, R30S, R58K, T77N, S84N
VL: DIQLTQSPSFLSASVGDRVTITCRASQGISSYLAWYQQKPGKAPKLLIYAASTLQSGVPSRFSGSGSGTEFTLTISSLQPEDFATYYCQQYSFYSHTFGQGTKLEIK
Consider B5, for which, in the assay with EOL-1, the “binding to EOL-1 by flow cytometry” value was “(++)”. Besides, the “binding to Karpas 299 by flow cytometry” value with Karpas 299 is “(++)”. Also, the “binding to DMS79 by flow cytometry” value in the assay with DMS79 (primary antibody 1 ug/ml) is on record as “(−)”.

These data come from US20260008856A1, “METHODS OF TREATING DISEASE USING ANTI-IL1RAP ANTIBODIES AND ANTIBODY DRUG CONJUGATES” (Bluefin Biomedicine, Inc., priority 2022, published 2026).
